According to the supplement of paper PMC10567573:

B1: FBF1 (parent)
chain: LQRASILDMRRDHEEQLQRLKLLK

Variants of: B1
Assay: protein stability index of a GFP-peptide fusion (GPS, HEK-293T) (PSI 1-6); higher = more stable
Conditions: c terminus: a fixed tail appended
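Further: lentivirally expressed fusions sorted by FACS into six bins by GFP to DsRed ratio, PSI derived from sequencing read proportions per bin multiplied by bin number.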

In order of falling protein stability index:
1. LQRASILDMRRDHEEQPQRLKLLK [L17P]  4.63
2. LQRASILDMRRDHEEQQQRLKLLK [L17Q]  4.52
3. LQRASILDMRRDHEEQLQREKLLK [L20E]  4.49
4. LQRASILDMRRDHEEQLQRDKLLK [L20D]  4.45
5. LQRASILDMRRDHEEQLQRLKNLK [L22N]  4.4
6. LQRASILDMRRDHEEQLQRLKTLK [L22T]  4.35
7. LQRASILDMRRDHEEQLQRGKLLK [L20G]  4.34
8. LQRASILDMRRDHEEQLQRQKLLK [L20Q]  4.33
9. LQRASILDMRRDHEEQLQRLKELK [L22E]  4.33
10. LQRASILDMRRDHEEQLQRLKQLK [L22Q]  4.27
11. LQRASILDMRRDHEEQLQDLKLLK [R19D]  4.26
12. LQRASILDMRRDHEEQLQELKLLK [R19E]  4.25
13. LQRASILDMRRDHEEQLQRLKPLK [L22P]  4.24
14. LQRASILDMRRDHEEQDQRLKLLK [L17D]  4.23
15. LQRASILDMRRDHEEQLQRNKLLK [L20N]  4.22
16. LQRASILDMRRDHEEQLQRPKLLK [L20P]  4.21
17. LQRASILDMRRDHEEQLQRLKSLK [L22S]  4.21
18. LQRASILDMRRDHEEQTQRLKLLK [L17T]  4.19
19. LQRASILDMRRDHEEQLQRCKLLK [L20C]  4.17
20. LQRASILDMRRDHEEQLQRRKLLK [L20R]  4.13
21. LQRASILDMRRDHEEQLQRLKLLD [K24D]  4.12
22. LQRASILDMRRDHEEQLQRSKLLK [L20S]  4.11
23. LQRASILDMRRDHEEQLQRKKLLK [L20K]  4.1
24. LQRASILDMRRDHEEQLQRLKHLK [L22H]  4.1
25. LQRASILDMRRDHEEQLQRTKLLK [L20T]  4.09
26. LQRASILDMRRDHEEQEQRLKLLK [L17E]  4.07
27. LQRASILDMRRDHEEQKQRLKLLK [L17K]  4.05
28. LQRASILDMRRDHEEQGQRLKLLK [L17G]  4.03
29. LQRASILDMRRDHEEQLQRLKLLM [K24M]  4.03
30. LQRASILDMRRDHEEQHQRLKLLK [L17H]  4
31. LQRASILDMRRDHEEQLQRMKLLK [L20M]  4
32. LQRASILDMRRDHEEQLQRHKLLK [L20H]  3.96
33. LQRASILDMRRDHEEQLQRLKCLK [L22C]  3.94
34. LQRASILDMRRDHEEQLQRLKVLK [L22V]  3.92
35. LQRASILDMRRDHEEQIQRLKLLK [L17I]  3.91
36. LQRASILDMRRDHEEQNQRLKLLK [L17N]  3.91
37. LQRASILDMRRDHEEQLQNLKLLK [R19N]  3.89
38. LQRASILDMRRDHEEQVQRLKLLK [L17V]  3.87
39. LQRASILDMRRDHEEQLQRYKLLK [L20Y]  3.83
40. LQRASILDMRRDHEEQLQRVKLLK [L20V]  3.79
41. LQRASILDMRRDHEEQLQRAKLLK [L20A]  3.79
42. LQRASILDMRRDHEEQSQRLKLLK [L17S]  3.77
43. LQRASILDMRRDHEEQLQRLKILK [L22I]  3.77
44. LQRASILDMRRDHEEQLQPLKLLK [R19P]  3.75
45. LQRASILDMRRDHEEQLQGLKLLK [R19G]  3.75
46. LQRASILDMRRDHEEQLQRLKRLK [L22R]  3.74
47. LQRASILDMRRDHEEQLQRLKKLK [L22K]  3.74
48. LQRASILDMRRDHEEQMQRLKLLK [L17M]  3.72
49. LQRASILDMRRDHEEQLQRLKDLK [L22D]  3.63
50. LQRASILDMRRDHEEQYQRLKLLK [L17Y]  3.55
51. LQRASILDMRRDHEEQCQRLKLLK [L17C]  3.55
52. LQRASILDMRRDHEEQLQRLKLLP [K24P]  3.55
53. LQRASILDMRRDHEEQLQRLKLLN [K24N]  3.55
54. LQRASILDMRRDHEEQRQRLKLLK [L17R]  3.54
55. LQRASILDMRRDHEEQLQRLKLLE [K24E]  3.52
56. LQRASILDMRRDHEEQLQRLKFLK [L22F]  3.5
57. LQRASILDMRRDHEEQLQSLKLLK [R19S]  3.48
58. LQRASILDMRRDHEEQLQALKLLK [R19A]  3.48
59. LQRASILDMRRDHEEQLQRLKMLK [L22M]  3.44
60. LQRASILDMRRDHEEQLQRLKGLK [L22G]  3.44
61. LQRASILDMRRDHEEQLQRLKLLH [K24H]  3.44
62. LQRASILDMRRDHEEQLQQLKLLK [R19Q]  3.33
63. LQRASILDMRRDHEEQLQRIKLLK [L20I]  3.3
64. LQRASILDMRRDHEEQLQRLKLLR [K24R]  3.3
65. LQRASILDMRRDHEEQLQRLKWLK [L22W]  3.27
66. LQRASILDMRRDHEEQLQRLKLLG [K24G]  3.2
67. LQRASILDMRRDHEEQLQRLKALK [L22A]  3.18
68. LQRASILDMRRDHEEQFQRLKLLK [L17F]  3.17
69. LQRASILDMRRDHEEQLQRLKYLK [L22Y]  3.15
70. LQRASILDMRRDHEEQLQKLKLLK [R19K]  3.14
71. LQRASILDMRRDHEEQLQRFKLLK [L20F]  3.06
72. LQRASILDMRRDHEEQLQMLKLLK [R19M]  3.03
73. LQRASILDMRRDHEEQWQRLKLLK [L17W]  2.96
74. LQRASILDMRRDHEEQLQRLKLLT [K24T]  2.87
75. LQRASILDMRRDHEEQLQTLKLLK [R19T]  2.85
76. LQRASILDMRRDHEEQLQRLKLLS [K24S]  2.82
77. LQRASILDMRRDHEEQLQRLKLLY [K24Y]  2.81
78. LQRASILDMRRDHEEQLQRWKLLK [L20W]  2.78
79. LQRASILDMRRDHEEQLQHLKLLK [R19H]  2.78
80. LQRASILDMRRDHEEQLQYLKLLK [R19Y]  2.72
81. LQRASILDMRRDHEEQLQRLKLLQ [K24Q]  2.68
82. LQRASILDMRRDHEEQLQCLKLLK [R19C]  2.65
83. LQRASILDMRRDHEEQLQRLKLLF [K24F]  2.65
84. LQRASILDMRRDHEEQLQVLKLLK [R19V]  2.48
85. LQRASILDMRRDHEEQLQRLKLLI [K24I]  2.28
86. LQRASILDMRRDHEEQLQWLKLLK [R19W]  2.25
87. LQRASILDMRRDHEEQLQLLKLLK [R19L]  2.22
88. LQRASILDMRRDHEEQLQRLKLLA [K24A]  2.19
89. LQRASILDMRRDHEEQLQILKLLK [R19I]  2.11
90. LQRASILDMRRDHEEQLQRLKLLW [K24W]  2.1
91. LQRASILDMRRDHEEQLQRLKLLC [K24C]  1.98
92. LQRASILDMRRDHEEQLQRLKLLV [K24V]  1.92
93. LQRASILDMRRDHEEQLQRLKLLL [K24L]  1.87
94. LQRASILDMRRDHEEQLQFLKLLK [R19F]  1.69
